# Data published in patent US20260224727A1, “COMPOUNDS AND METHODS FOR TREATING, AMELIORATING, OR […]” (Yale University, priority 2023, published 2026).
# Bridge positions count the residues as written; N and C are the ends. Square brackets hold non-standard residues; d marks the D form. Ends that are not written are not given here. Cit = NC(=O)NCCC[C@H](N)C(=O)O
# T1: recombinant biotin-ASGPR1 (Homo sapiens, UniProt P07306)
# T1 construct: purchased Viva Biotech
# T1 sequence (P07306 1-291): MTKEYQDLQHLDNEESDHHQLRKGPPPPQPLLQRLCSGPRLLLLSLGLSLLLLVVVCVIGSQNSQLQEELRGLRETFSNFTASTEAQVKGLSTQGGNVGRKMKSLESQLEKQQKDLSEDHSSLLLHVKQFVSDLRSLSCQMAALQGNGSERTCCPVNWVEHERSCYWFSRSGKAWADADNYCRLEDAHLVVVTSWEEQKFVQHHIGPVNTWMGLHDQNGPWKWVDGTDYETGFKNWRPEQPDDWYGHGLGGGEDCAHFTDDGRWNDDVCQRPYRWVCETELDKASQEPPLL
# How the values were obtained:
# [1] = Plasma stability in human plasma (LCMS, percent remaining); type: in vitro ADME; details: 37° C., 2 hours incubation, read-out: T1/2 plasma stability
# Protocol: (§1) With reference to FIGS. 6A and 6B, plasma stability […] of CCP1-GN4 was measured at WuXi Biologics. The compound was incubated in human, rat, or mouse plasma at 37° C. for 2 hours. Aliquots were taken at various time points and the percent remaining of CCP1-GN4 was quantified by LCMS. For plasma protein binding (PPB), the compound (CCP1-GN4) was incubated with human, rat, or mouse plasma protein and the degree of plasma protein binding was determined by ultracentrifugation and LCMS.
# [2] = Plasma stability in mouse plasma (LCMS, percent remaining); type: in vitro ADME; details: 37° C., 2 hours incubation, read-out: T1/2 plasma stability
# Protocol: as §1
# [3] = target: mouse anti-citrullinated epitope recombinant antibody clone 12G1 (anti-CCP1); experiment: SPR binding of CCP1-GN4 to immobilized anti-CCP1 antibody (Biacore S200, steady state affinity); details: antibody clone 12G1 immobilized on CM5 chip, 25° C., steady state affinity model, read-out: KD (anti-CCP)
# Protocol: With reference to FIG. 5A, binding of CCP1-GN4 was assessed using a surface plasmon resonance (SPR) on a Biacore S200 instrument. Prior to binding studies, 20 μg/mL mouse anti-citrullinated epitope recombinant antibody clone 12G1 (anti-CCP1) (Creative BioLabs) was immobilized to a Series S Sensor Chip CM5 using amine coupling to a target of 1.000 response units (RU) in 10 mM sodium acetate buffer pH 5.5. In parallel, normal human IgG isotype control (R&D Systems) was immobilized as a reference subtraction control using identical conditions. Sensor chips and reagents necessary for amine coupling were purchased from Cytiva.
# CCP1-GN4 was serially diluted in 100% DMSO and transferred to a 96-well microplate. 1×HBS-P buffer (Cytiva) was added to dilute sample to final test concentrations (1000 nM, 250 nM, 62.5 nM, 15.6 nM, 3.9 nM, 1 nM) in 1% DMSO. A solution of 1×HBS-P (Cytiva) containing 1% DMSO was prepared as running buffer immediately prior to binding experiments.
# Samples were injected over the sensor chip with a contact time of 300 seconds, dissociation time of 600 seconds, and a flow rate of 30 μL/minute at 25° C. Between injections, a solution containing 50% DMSO in 1×HBS-P buffer was used to wash any remaining bound analyte from the sensor chip surface. […]
# [4] = Plasma stability in rat plasma (LCMS, percent remaining); type: in vitro ADME; details: 37° C., 2 hours incubation, read-out: T1/2 plasma stability
# Protocol: as §1
# [5] = target: T1, recombinant biotin-ASGPR1; experiment: SPR binding to ASGPR1 (Biacore 8K)
# Protocol: With reference to FIG. 5B, binding to ASGPR1 was characterized by surface plasmon resonance (SPR) on a Biacore 8K instrument. Preceding binding measurement, recombinant biotin-ASGPR1 (Viva Biotech) was diluted to a concentration of 2 μg/mL in a buffer containing 20 mM Tris pH 8.0, 200 mM NaCl, 1 mM TCEP, 2 mM CaCl2), and 0.01% Tween-20. A Sensor Chip SA (Cytiva) was conditioned with three injections of 1 M NaCl in 50 mM NaOH prior to capturing […] ASGPR on the sensor chip surface. Capture was performed at a flow rate of 5 μL/min with a target level of 1000 RU. CCP1-GN4 was serially diluted across 10 points to final test concentrations (25 nM, 8.3 nM, 2.8 nM, 0.93 nM, 0.3 nM, 0.1 nM, 0.03 nM, 0.01 nM, 0.004 nM, 0.0013 nM) in buffer composed of 20 mM Tris pH 8.0, 200 mM NaCl, 1 mM TCEP, 2 mM CaCl2), 0.01% Tween-20, and a final solvent composition of 3% DMSO.
# Samples were injected over the sensor chip surface with a contact time of 180 seconds, dissociation time of 600 seconds, flow rate of 40 μL/min and temperature of 25° C. Data files were fit to multi-cycle kinetics and steady state models using Biacore Insight Evaluation software to determine kinetic and affinity binding parameters.
# [6] = target: mouse anti-citrullinated epitope recombinant antibody clone 12G1 (anti-CCP1) (Creative BioLabs); experiment: SPR (Biacore S200), antibody 12G1 amine-coupled on CM5, CCP1-GN4 as analyte, steady state affinity model
# [7] = target: recombinant biotin-ASGPR1 (Viva Biotech); experiment: SPR (Biacore 8K), biotin-ASGPR1 captured on SA chip, CCP1-GN4 as analyte, multi-cycle kinetics and steady state models
# [8] = target: mouse anti-citrullinated epitope recombinant antibody clone 12G1 (anti-CCP1) (Creative BioLabs)
# [9] = target: recombinant biotin-ASGPR1 (Viva Biotech); experiment: SPR (Biacore 8K), biotin-ASGPR1 captured on Sensor Chip SA, CCP1-GN4 as analyte, multi-cycle kinetics, 1:1 binding model, 25 C
Molecule,half-life [1],half-life [2],Kd [3],half-life [4],Kd [5],Kd [6],Kd [7],EC50 (read off the curve); Anti-CCP1 MFI of 12G1 with goat anti-mouse AF488 in HEK-293-ASGPR cells [8],koff [9],kon [9]
CC(=O)N[C@H]1[C@H](OCCOCCOCCNC(=O)CCOCC(COCCC(=O)NCCOCCOCCO[C@@H]2O[C@H](CO)[C@H](O)[C@H](O)[C@H]2NC(C)=O)(COCCC(=O)NCCOCCOCCO[C@@H]2O[C@H](CO)[C@H](O)[C@H](O)[C@H]2NC(C)=O)NC(=O)CNC(=O)CCOCCOCCOCCOCc2cn(CC[C@H](N)C(=O)N[C@@H](Cc3c[nH]cn3)C(=O)N[C@@H](CCC(N)=O)C(=O)N[C@H]3CSSC[C@@H](C(=O)NCC(=O)N[C@@H](CCCNC(=N)N)C(=O)N[C@@H](CO)C(=O)NCC(=O)N[C@@H](CO)C(=O)O)NC(=O)[C@H](CCCNC(=N)N)NC(=O)CNC(=O)[C@H](CCCNC(=N)N)NC(=O)[C@H](CO)NC(=O)[C@H](CCCNC(=N)N)NC(=O)CNC(=O)[C@H](CCCNC(N)=O)NC(=O)[C@H]([C@@H](C)O)NC(=O)[C@H](CO)NC(=O)[C@H](CCC(=O)O)NC(=O)[C@H](CCC(N)=O)NC(=O)[C@H](Cc4c[nH]cn4)NC3=O)nn2)O[C@H](CO)[C@H](O)[C@@H]1O [CCP1-GN4],> 290 min,> 290 min,75 nM,> 290 min,1.92 nM,–,–,–,–,–
HQCHQEST[Cit]GRSRGRCGRSGS-OH (disulfide 3-16; not fully specified (N-terminus); also: Dab(N3) side-chain azide joined by CuAAC triazole to Target A001A-PEG4-Alkyne (tri-GalNAc)) [CCP1-GN4],–,–,–,–,–,75 nM,1.92 nM,50 nM,0.029 s⁻¹,1.51e+07 M⁻¹ s⁻¹
